Columns and labels:
[1] = molecular target: F5/8C module of LamA (Paenibacillus β-1,3-glucanase), residues 1636-1793 (Paenibacillus sp. BCRC 17245); assay: cross-linking; protein 0.65 mg/mL, 0.05% glutaraldehyde, room temperature, 1 h, 12% SDS-PAGE
[2] = molecular target: F5/8C module of LamA (Paenibacillus β-1,3-glucanase), residues 1636-1793 (Paenibacillus sp. BCRC 17245); assay: SEC; Sephacryl S-300 gel filtration column (Hiprep 16/60), 10 mM sodium acetate pH 5.8, 10% glycerol; monomer to dimer
[3] = molecular target: F5/8C module of LamA (Paenibacillus β-1,3-glucanase), residues 1636-1793 (Paenibacillus sp. BCRC 17245); assay: AUC; sedimentation velocity, 20°C, 42000 rpm, protein 0.17 mg/mL in 10 mM phosphate pH 7.0, 10% glycerol; c(s) by Sedfit94; monomer to dimer

stoichiometry N [1]: 2
dimer fraction [2]: 15%
stoichiometry N [2]: 2
dimer fraction [3]: 15%
stoichiometry N [3]: 2
Substance: F5/8C module of LamA (Paenibacillus β-1,3-glucanase), residues 1636-1793 (domain or fragment)
